Columns and labels:
Test in all cases: flow cytometry on transfected 293F cells
[1] = target: T1, human PTPRF isoform 2 without signal sequence, FLAG-tagged, expressed from pFLAG-PTPRF-2 (human, UniProt P10586 30-1907)
T1 construct: not shown: FLAG tag supplied by the vector pFLAG-GW

[2] = target: T2, human EPHB4 without signal sequence, FLAG-tagged, expressed from pFLAG-EPHB4 (human, UniProt P54760 16-987)
T2 construct: not shown: FLAG tag supplied by the vector pFLAG-GW
T2 sequence: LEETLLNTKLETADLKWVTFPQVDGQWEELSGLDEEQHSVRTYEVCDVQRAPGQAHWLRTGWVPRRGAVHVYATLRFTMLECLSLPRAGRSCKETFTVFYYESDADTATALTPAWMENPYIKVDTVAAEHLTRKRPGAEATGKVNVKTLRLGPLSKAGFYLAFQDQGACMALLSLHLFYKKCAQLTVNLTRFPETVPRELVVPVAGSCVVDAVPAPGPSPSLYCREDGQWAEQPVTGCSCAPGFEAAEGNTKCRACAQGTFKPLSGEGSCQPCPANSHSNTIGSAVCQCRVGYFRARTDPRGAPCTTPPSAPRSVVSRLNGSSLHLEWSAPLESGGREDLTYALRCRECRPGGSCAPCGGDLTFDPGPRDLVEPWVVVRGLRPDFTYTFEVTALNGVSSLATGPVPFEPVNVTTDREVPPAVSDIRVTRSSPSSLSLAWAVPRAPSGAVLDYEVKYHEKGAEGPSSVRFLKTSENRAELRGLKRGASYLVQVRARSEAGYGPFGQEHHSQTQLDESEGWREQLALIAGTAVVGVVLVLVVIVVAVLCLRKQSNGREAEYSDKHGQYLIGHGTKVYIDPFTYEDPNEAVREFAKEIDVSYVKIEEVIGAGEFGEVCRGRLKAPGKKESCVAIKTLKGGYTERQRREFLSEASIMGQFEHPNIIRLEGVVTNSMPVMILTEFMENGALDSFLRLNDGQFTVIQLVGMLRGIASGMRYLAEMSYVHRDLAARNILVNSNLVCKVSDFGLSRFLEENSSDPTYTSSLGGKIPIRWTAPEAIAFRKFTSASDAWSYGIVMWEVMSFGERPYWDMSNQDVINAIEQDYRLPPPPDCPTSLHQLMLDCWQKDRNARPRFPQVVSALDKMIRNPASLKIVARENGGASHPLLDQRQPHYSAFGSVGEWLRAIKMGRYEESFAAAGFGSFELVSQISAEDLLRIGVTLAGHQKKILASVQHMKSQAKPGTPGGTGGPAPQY

[3] = target: T3, human PTPRS isoform 4 without signal sequence, FLAG-tagged, expressed from pFLAG-PTPRS-4 (human, UniProt Q13332 30-1948)
T3 construct: not shown: FLAG tag supplied by the vector pFLAG-GW
T3 sequence: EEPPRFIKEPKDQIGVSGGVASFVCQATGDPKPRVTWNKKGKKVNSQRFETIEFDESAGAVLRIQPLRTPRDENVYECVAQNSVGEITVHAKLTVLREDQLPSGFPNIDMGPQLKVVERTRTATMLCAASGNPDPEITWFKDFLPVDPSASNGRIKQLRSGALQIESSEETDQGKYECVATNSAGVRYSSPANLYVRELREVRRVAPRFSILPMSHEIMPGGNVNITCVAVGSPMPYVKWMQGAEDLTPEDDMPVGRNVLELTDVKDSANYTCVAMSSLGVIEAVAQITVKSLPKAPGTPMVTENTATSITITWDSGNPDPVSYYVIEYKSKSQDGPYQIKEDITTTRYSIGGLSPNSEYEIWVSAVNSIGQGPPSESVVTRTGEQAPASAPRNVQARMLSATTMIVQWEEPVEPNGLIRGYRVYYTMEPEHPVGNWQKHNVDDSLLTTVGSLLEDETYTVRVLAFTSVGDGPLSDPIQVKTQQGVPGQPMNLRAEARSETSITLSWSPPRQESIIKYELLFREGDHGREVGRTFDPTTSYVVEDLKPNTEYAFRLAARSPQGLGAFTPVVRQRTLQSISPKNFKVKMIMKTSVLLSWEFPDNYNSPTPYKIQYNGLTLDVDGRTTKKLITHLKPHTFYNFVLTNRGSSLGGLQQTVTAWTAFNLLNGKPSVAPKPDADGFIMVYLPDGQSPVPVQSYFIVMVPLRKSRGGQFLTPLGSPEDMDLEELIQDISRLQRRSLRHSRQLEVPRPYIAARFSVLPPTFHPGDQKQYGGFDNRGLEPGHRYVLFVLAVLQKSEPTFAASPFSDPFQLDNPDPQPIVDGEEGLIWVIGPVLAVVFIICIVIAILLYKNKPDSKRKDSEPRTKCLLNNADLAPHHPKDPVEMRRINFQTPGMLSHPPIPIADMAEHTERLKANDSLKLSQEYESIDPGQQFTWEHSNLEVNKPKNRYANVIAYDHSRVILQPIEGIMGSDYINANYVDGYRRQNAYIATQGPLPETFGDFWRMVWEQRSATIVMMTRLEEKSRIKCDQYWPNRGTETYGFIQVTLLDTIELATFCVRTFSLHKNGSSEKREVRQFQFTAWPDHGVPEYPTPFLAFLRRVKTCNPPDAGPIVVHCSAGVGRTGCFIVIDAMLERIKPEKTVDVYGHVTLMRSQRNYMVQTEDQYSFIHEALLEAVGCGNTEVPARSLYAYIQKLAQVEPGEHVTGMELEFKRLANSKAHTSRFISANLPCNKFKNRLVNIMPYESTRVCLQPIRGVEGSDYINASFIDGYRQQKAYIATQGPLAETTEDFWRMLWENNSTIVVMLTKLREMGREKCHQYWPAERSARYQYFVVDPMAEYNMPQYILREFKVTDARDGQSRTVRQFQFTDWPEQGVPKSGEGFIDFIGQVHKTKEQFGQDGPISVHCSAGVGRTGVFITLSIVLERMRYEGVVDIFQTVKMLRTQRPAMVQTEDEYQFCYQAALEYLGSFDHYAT

[4] = target: T4, human PTPRS isoform 2 without signal sequence, FLAG-tagged, expressed from pFLAG-PTPRS-2 (human, UniProt Q13332 30-1948)
T4 construct: not shown: FLAG tag supplied by the vector pFLAG-GW

Measured: binding result

T1 sequence (P10586 other isoform, or with tags, fused parts or gaps): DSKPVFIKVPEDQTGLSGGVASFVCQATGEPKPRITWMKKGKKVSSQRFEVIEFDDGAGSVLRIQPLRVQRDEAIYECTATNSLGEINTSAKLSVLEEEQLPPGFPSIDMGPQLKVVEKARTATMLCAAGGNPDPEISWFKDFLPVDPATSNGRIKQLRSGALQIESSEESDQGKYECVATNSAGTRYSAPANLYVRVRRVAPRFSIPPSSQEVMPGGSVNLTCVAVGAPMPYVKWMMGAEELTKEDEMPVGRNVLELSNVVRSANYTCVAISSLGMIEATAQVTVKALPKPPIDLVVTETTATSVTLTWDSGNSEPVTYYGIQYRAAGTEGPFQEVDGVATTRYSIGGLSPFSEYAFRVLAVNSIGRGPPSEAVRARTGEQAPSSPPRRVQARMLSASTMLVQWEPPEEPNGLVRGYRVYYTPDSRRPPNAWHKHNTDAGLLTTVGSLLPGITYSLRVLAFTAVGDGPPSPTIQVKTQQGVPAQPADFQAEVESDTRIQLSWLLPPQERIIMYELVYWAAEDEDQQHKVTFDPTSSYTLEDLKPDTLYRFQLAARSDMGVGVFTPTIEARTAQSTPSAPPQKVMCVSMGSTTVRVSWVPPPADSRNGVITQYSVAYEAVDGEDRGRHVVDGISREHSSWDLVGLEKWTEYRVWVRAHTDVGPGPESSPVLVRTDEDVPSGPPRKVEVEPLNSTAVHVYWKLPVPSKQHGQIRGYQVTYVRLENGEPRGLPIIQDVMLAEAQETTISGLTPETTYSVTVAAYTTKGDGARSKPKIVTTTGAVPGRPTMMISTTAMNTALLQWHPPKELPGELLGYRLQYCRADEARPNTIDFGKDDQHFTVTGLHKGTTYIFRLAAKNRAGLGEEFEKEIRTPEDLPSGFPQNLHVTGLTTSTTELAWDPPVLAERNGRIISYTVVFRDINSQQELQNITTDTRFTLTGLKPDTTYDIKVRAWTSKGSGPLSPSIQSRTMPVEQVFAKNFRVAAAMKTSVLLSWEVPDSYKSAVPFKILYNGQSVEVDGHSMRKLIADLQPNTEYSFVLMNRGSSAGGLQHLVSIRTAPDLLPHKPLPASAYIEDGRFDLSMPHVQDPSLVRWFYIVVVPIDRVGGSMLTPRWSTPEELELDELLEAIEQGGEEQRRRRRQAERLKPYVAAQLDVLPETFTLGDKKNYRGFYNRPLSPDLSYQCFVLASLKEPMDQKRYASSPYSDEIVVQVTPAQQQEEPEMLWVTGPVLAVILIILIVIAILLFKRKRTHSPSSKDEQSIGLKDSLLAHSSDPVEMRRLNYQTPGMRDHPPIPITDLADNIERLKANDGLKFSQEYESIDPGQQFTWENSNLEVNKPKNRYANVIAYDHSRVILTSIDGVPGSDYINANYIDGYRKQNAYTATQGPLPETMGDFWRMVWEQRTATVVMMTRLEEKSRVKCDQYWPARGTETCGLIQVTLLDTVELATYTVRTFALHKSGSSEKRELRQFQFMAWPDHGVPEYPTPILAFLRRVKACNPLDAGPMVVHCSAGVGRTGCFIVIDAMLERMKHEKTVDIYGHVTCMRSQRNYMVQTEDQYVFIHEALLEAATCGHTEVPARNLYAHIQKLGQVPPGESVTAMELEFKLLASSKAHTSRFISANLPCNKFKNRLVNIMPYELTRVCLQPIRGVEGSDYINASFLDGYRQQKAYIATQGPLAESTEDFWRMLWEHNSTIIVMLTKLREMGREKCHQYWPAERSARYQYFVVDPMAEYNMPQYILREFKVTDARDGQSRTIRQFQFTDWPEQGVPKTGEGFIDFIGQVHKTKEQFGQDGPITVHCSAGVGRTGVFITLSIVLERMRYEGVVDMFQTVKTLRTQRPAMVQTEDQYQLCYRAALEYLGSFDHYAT

B1: mouse anti-human EPHA2 antibody A201 (antibody, V domains shown)
VH: EVQLQQSGAELVKPGASVKLSCTVSGFTFKDTYVHWVKQRPEQGLEWIGRIDPANANTKYDPKFQGKASITADTSSNTAYLQLSSLPSEDTAVYYCAAYGKSAWFAYWGQGTLVTVSA
VL: DIQMTQTTSSLSASLGDRVTISCRASQDIGNYLNWYQQKPDGTVKVLIYYTSRLHSGVPSRFSGSGSGTDYSLTISNLEQEDIATYFCQQGHSLPPTFGGGTKLEIKR
notes: Mouse monoclonal antibody purified from hybridoma supernatant, isotype IgG1; also called A201 antibody
no binding: all assays above

B2: mouse anti-human EPHA2 antibody A205 (antibody, V domains shown)
VH: QIQLVQSGPELKKPGETVKISCKASGYTFTDYSMNWVKQAPGKGLKWMGWINTYTGEPTYADDFKGRFAFSLETSASTAYLQINNLKNEDTATYFCASPISLLRLLDYWGQGTTLTVSS
VL: DVVMTQTPLSLPVSLGDQASIPCRSSQSLVHSNGNTYLHWYLQKPGQSPKLLIYKVSNRFSGVPDRFSGSGSGTDFTLKISRVEAEDLGVYFCSQSTHVPWTFGGGTKLEIKR
notes: Mouse monoclonal antibody purified from hybridoma supernatant, isotype IgG2b; also called A205 antibody
no binding: all assays above

Source: patent WO2016171242A1 (dated 2016)
